The supplement of paper PMC9170038

System: MS2 coat protein
Assay: apparent KD of MS2 coat protein; designed switch direction (-1 OFF switch, 1 ON switch): -1; higher = weaker reporter binding
Method in brief: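 Stalled E. coli RNA polymerase transcribed designed RNA switches on Illumina chips, which were then titrated with SNAP-549-labelled MS2 coat protein, doubling from 0.7 or 1.5 nM to 3 µM. Steps lasted from 0.8–1.5 h at the lowest concentration to 10–20 min at the highest. The apparent KD is each design's median over clusters of curve-fitted normalised fluorescence.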

[1] = input ligand: microRNA oligo, concentration not stated
[2] = Eterna round: R95, input ligand: microRNA oligo, concentration not stated
[3] = Eterna round: R95, input ligand: FMN 200 uM
[4] = Eterna round: R95, input ligand: none

| Sequence | apparent KD of MS2 coat protein (input ligand: FMN 200 uM) [nM] | apparent KD of MS2 coat protein [1] [nM] | apparent KD of MS2 coat protein (input ligand: none) [nM] | apparent KD of MS2 coat protein [2] [nM] | apparent KD of MS2 coat protein [3] [nM] | apparent KD of MS2 coat protein [4] [nM] |
| --- | --- | --- | --- | --- | --- | --- |
| GCAGCAACUCUAAUCAAAUCAACAUGAGGAUCACCCAUGUCUCAGGAUAUGGUCUGGAUUACAGGCCAGAAGGGAGAAAGCUGC [Eli exng3 - 048] (Eterna round: R96, puzzle: Exclusion NG 3) | 16.5 | 13.9 | 16.6 |  |  |  |
| CCCUCACAUGAGGAUCACCCAUGUCAGGAUAUUCGAGGCGCAAAUACGCCAAAUGCAGGAAGAAGGGACGUGCC [Ususzalaxe] (puzzle: Exclusion 1) |  |  |  | 13.5 |  |  |
| AAAAGUUUUCAGGAUAUGUGCGAUUAAUAUCGUGCAGAAGGGAGGACAUGAGGAUCACCCAUGUUGAAGACAAC [Omei Ex6 A18] (Eterna round: R97, puzzle: Exclusion 6) | 66.1 |  | 80.2 |  |  |  |
| UAAGAUUACCGAGGAUAUGGUAAUUUUUGUUAACCAGAAGGCGGACUCAACAUGAGGAUCACCCAUGUAUAAAGGGUAUUAGUU [JR_ExcNG1_Sub040] (Eterna round: R96, puzzle: Exclusion NG 1) | 100 | 74.2 | 96.4 |  |  |  |
| CCUCAGUAAGGAUAUCAGCUUAUAAGGUUGGUAAUGAGAGCUGAGAAGGUACAUGAGGAUCACCCAUGUUAGUU [JL Zatite mod 6] (puzzle: Exclusion 4) |  |  |  | 26.7 |  |  |
| GCGCCAUCGUGAGAUGGCGUAUAUACAUGAGGAUCACCCAUGUAGGAUAUCGAUUGCUUUGCAGUCGAGAAGGGCGUGAUAAUU [JL ENG3 3.69] (Eterna round: R96, puzzle: Exclusion NG 3) | 109 | 60.5 | 82 |  |  |  |
| AAGGACUGAGGAUAUGCGCGGGCAAGAUCCUCAAUCCCAAAACAUGAGGAUCACCCAUGUAGAAGGCAGAAAUA [Tereenrion] (puzzle: Exclusion 2) |  |  |  | 23.4 |  |  |
| AUAUACGGGCAGGAUAUGCGAGCCAGAAAGCACGCAGAAGGGCUAACAUGAGGAUCACCCAUGUGAGCAACUCG [Eternabot (Original) Solution 9] (Eterna round: R97, puzzle: Exclusion 6) | 18.1 |  | 14.9 |  |  |  |
| ACAUGAUCAGGAUAUACAUGAGGAUCACCCAUGUAAAUCAAAAAAAAACUUUCUUUAUGUAGAAGGGAUCUUGU [EX3 270: Random 6] (Eterna round: R96, puzzle: Exclusion 3) | 15.2 | 13.6 | 15.3 |  |  |  |
| CCAUCGAGUGUGAGGAUAUGCUGGUCCUUGGAUCAGCAGAAGGCACAUGAGGAUCACCCAUGUGGAUACGGUGG [JL bmx4 3.19] (puzzle: Brourd's mod of Exclusion 4) |  |  |  | 30 |  |  |
| GAAAAGGUAGGAUAUAUGAAAAAAAAGGGUAGAAAAAAAACACAUGAGGAUCACCCAUGUAGAAGGACCAAAAG [salish99_ex2_r3_056] (puzzle: Exclusion 2) |  |  |  | 46.3 | 37.2 | 26.9 |
| UCUUUGUUUGUGAGGAUAUCGGUGGGAUGGGUUGUCGAGAAGGCACAUGAGGAUCACCCAUGUGAGGGACAGCA [JR_BMEx4_Sub028] (Eterna round: R97, puzzle: Brourd's mod of Exclusion 4) | 16.6 |  | 16.2 |  |  |  |
| AAGAAACAUGAGGAUCACCCAUGUGAGGAUAUGACAAAGAAAAGAAAAGAAAGAAGAGUCAGAAGGCACAAAGG [salish99-ex1_r3_038] (puzzle: Exclusion 1) |  |  |  | 53.1 | 137 | 57.7 |
| UUCCGACAUGAGGAUCACCCAUGUGAGGAUAUGUUCGAAAGCUAAGACUGCGACAGGAAUAGAAGGCGCGGGUA [Eternabot (Original) Solution 17] (Eterna round: R97, puzzle: Exclusion 1) | 20.4 |  | 20.4 |  |  |  |
| AAGAAACAUGAGGAUCACCCAUGUGAGGAUAUAGAAAGAAAGAAAAGAAAAGAAAGAACUAGAAGGCACAAAGA [JR_Exclu1_Sub030] (puzzle: Exclusion 1) |  |  |  | 26.4 | 26.2 | 30.8 |
| AGUAGGUCUACCUUGGUGGAUCUGCAUUUUUGCAGGUGUACAUGAGGAUCACCCAUGUCCUCAUUUGCUCGUCUUAU [JL turnoff v2 99.30] (Eterna round: R96, puzzle: Sensor v3, turn-off variant 2) | 555 | 599 | 508 |  |  |  |
| GGUCCUCCGGAGGAUAUGGAACUGGAGGUAGUACCAGAAGGCCGAACAUGAGGAUCACCCAUGUGCCCGUAAAA [Aarlean] (puzzle: Exclusion 6) |  |  |  | 17 | 76.8 | 18.5 |

| Sequence | apparent KD of MS2 coat protein (input ligand: FMN 200 uM) [nM] | apparent KD of MS2 coat protein [1] [nM] | apparent KD of MS2 coat protein (input ligand: none) [nM] | apparent KD of MS2 coat protein [2] [nM] | apparent KD of MS2 coat protein [3] [nM] | apparent KD of MS2 coat protein [4] [nM] |
| --- | --- | --- | --- | --- | --- | --- |
| UGUGUGAGACAGGAUAUGCCGGAUGAAUUGCAGGUAGAAGGGUCUACAUGAGGAUCACCCAUGUGGCCGGUUGG [Ex6 #76] (Eterna round: R97, puzzle: Exclusion 6) | 19.8 |  | 13.6 |  |  |  |
| AAGCGCGUAGGAUAUACAUGAGGAUCACCCAUGUGAGGAGGGAGUUGGAGGUGUGGAAGUAGAAGGACGGAGUG [JR_Exclu3_Sub079] (puzzle: Exclusion 3) |  |  |  | 26.9 |  |  |
| UUAGAUUAUUGAGGAUAUGGUUAUUUUUAUUAACCAGAAGGCAAACUCAACAUGAGGAUCACCCAUGUAUAAAGGGUAUUAGUU [JR_ExcNG1_Sub097] (Eterna round: R96, puzzle: Exclusion NG 1) |  | 71.9 |  |  |  |  |
| GGAAAGGUAGGAUAUACGAAGAAAAAGGGUAGAAGAAUAACACAUGAGGAUCACCCAUGUAGAAGGACCAAAGC [Mat - Exclusion 2 - Mod of my Tesla design - D14] (puzzle: Exclusion 2) |  |  |  | 25.1 | 96.8 | 25.8 |
| GCUUGGCGAGGAUAUACAUGAGGAUCACCCAUGUGAGAGAAAAAAGUGAGGAAGAAAAGUAGAAGGCGCUGAGG [Mat - Exclusion 3 - Mod of Salish D57] (puzzle: Exclusion 3) |  |  |  | 51.2 | 143 | 61.8 |
| UACUGGACAGGAUAUGUUCUUGAGCACUUGAGGAUCACCCAAGUCAUCAAGAACUCAGGCACAGAAGGGUUUAUGA [salish99_ex5_r4_004] (Eterna round: R97, puzzle: Exclusion 5) | 22 |  | 15.4 |  |  |  |
| AGUACUAUCACGAAAGUGUUAGUACAAUAAGCUUGUGAAACAUGAGGAUCACCCAUGUCCUCAUAAGCUCGUCUUAU [salish99_TOv2_r3_019] (Eterna round: R96, puzzle: Sensor v3, turn-off variant 2) | 15.8 | 467 | 17.8 |  |  |  |
| GUCAGCUCGUGAGGAUAUGUAUAUACAUGAGGAUCACCCAUGUUAGAUCUGCUUCGGCUGUAUAUACAGAAGGCACGAGCUGAC [ENG2/16-A1] (Eterna round: R96, puzzle: Exclusion NG 2) | 504 | 382 | 308 |  |  |  |
| AAGAAACAUGAGGAUCACCCAUGUGAGGAUAUGGCCCGCCCGGCGUGAGCUGGUUUUGUCAGAAGGCACAAAGG [salish99_ex1_r4_017] (Eterna round: R97, puzzle: Exclusion 1) | 104 |  | 41.9 |  |  |  |
| CAUACACAUGAGGAUCACCCAUGUGAGGAUAUGCGUACGUUGUCAGUAGGCGACGUGCGCAGAAGGCGCGUGUU [Mat - Mod of JL D90] (puzzle: Exclusion 1) |  |  |  | 46.3 |  |  |
| AAAUCGGUAGAGGAUAUUGUACAGGAAACGGUGCAAGAAGGUUGCACAUGAGGAUCACCCAUGUUAAAUUGCGA [EX6 #51] (Eterna round: R97, puzzle: Exclusion 6) | 39.4 |  | 38.8 |  |  |  |
| UUGUAGUGAGGAUAUAUAUAGUGGUUUUAUUAAUUUUUAUUACUUGAGGAUCACCCAAGUAGAAGGCGCAAAGU [JR_Ex2_Sub071] (Eterna round: R97, puzzle: Exclusion 2) | 19.2 |  | 18.3 |  |  |  |
| AAACCUGCCCAUGACCGCAAGCUUUUUGCUUGUCUUACCACAUGAGGAUCACCCAUGUGGCAUGGGCUCCUUAUAAA [Xemave] (puzzle: Sensor v3, turn-off variant 2) |  |  |  | 11.8 | 14.2 | 11.7 |
| GGUCAGACGGUAGGAUAUCCAUAUCGAGUGACUCUUUCAUAACAUGAGGAUCACCCAUGUCGGUGGGAGAAGGGCCGUACGGCG [salish99_ExNG02_R04_005] (Eterna round: R96, puzzle: Exclusion NG 2) | 61.5 | 29.6 | 42.7 |  |  |  |
| CAGUACUGAGGAUAUACAUGAGGAUCACCCAUGUGUCUAAAGUAGGAUACUACUAUUAGUAGAAGGCAGUACUG [Fiskers Ex 3 828 mod 20] (puzzle: Exclusion 3) |  |  |  | 11.3 |  |  |
| CUGAGGUAGCGGUCCUAUGACAUGAGGAUCACCCAUGUACCUUGCUUUGAGCAUUUUGCUCGUCUUAUGAUUCUCGG [Mat - Sensor v3 - turn-off var 1 - JL Mod - D39] (puzzle: Sensor v3, turn-off variant 1) |  |  |  | 474 | 371 | 427 |
| UAUUUAGCAAGCAGAUCCCACAUGAGGAUCACCCAUGUUCUCUGAAAGUACAGAAUUACUGUACUUGCUCGUCUUAU [Winner reversed engineered 34] (Eterna round: R97, puzzle: Sensor, turn-off variant 1) | 210 |  | 237 |  |  |  |
